Measurements: article PMC2974046

What was measured:
Assay in all cases: purified protein
[1] = test system: NC(=O)[C@@H]1O[C@H]1C(=O)NC[C@H](N)C(=O)O; details: 5 mM L-valine, 10 mM ATP, 12 mM MgCl2, HEPES pH 8, room temperature
[2] = test system: NC(=O)/C=C/C(=O)NC[C@H](N)C(=O)O; details: 5 mM L-valine, 10 mM ATP, 12 mM MgCl2, HEPES pH 8, room temperature
[3] = test system: NC(=O)/C=C/C(=O)NC[C@H](N)C(=O)O; type: biochemical, Pantoea agglomerans; details: adenylation (A) domain, ATP, Mg2+, pH 7.5, room temperature

| Substance | Km [1] | kcat [1] | kcat/Km [1] | Km [2] | kcat [2] | kcat/Km [2] | Km [3] | kcat [3] |
| --- | --- | --- | --- | --- | --- | --- | --- | --- |
| DdaF (Pantoea agglomerans) | 53 ± 7 µM | 3.02 ± 0.117 s⁻¹ | 56700 M⁻¹ s⁻¹ | 72 ± 34 µM | 0.35 ± 0.05 s⁻¹ | 4830 M⁻¹ s⁻¹ | – | – |
| DdaD (Pantoea agglomerans) | – | – | – | – | – | – | 420 ± 80 µM | 1.07 ± 0.083 s⁻¹ |
